Measurements from patent publication US10077433B2, “Permuted and nonpermuted luciferase biosensors” (PROMEGA CORPORATION, priority 2006, dated 2018).

B1: pBFB401: Met-(OpLuc 1-84)-GSSGGSGGSG-R2betaB-GSSGGSGGSG-(OpLuc 85-169) (protein)
chain: MFTLADFVGDWQQTAGYNQDQVLEQGGLSSLFQALGVSVTPIQKVVLSGENGLKADIHVIIPYEGLSGFQMGLIEMIFKVVYPVDGSSGGSGGSGMYESFIESLPFLKSLEFSERLKVVDVIGTKVYNDGEQIIAQGDSADSFFIVESGEVKITMKRKGKSEVEENGAVEIARCSRGQYFGELALVTNKPRAASAHAIGTVKCLAMDVQAFERLLGPCMEIMKRNIATYEEQLVALFGTNMDIVGSSGGSGGSGDHHFKIILHYGTLVIDGVTPNMIDYFGRPYPGIAVFDGKQITVTGTLWNGNKIYDERLINPDGSLLFRVTINGVTGWRLCENILA
B2: pBFB398: Met-(OpLuc 1-50)-GSSGGSGGSG-R2betaB-GSSGGSGGSG-(OpLuc 51-169) (protein)
chain: MFTLADFVGDWQQTAGYNQDQVLEQGGLSSLFQALGVSVTPIQKVVLSGENGSSGGSGGSGMYESFIESLPFLKSLEFSERLKVVDVIGTKVYNDGEQIIAQGDSADSFFIVESGEVKITMKRKGKSEVEENGAVEIARCSRGQYFGELALVTNKPRAASAHAIGTVKCLAMDVQAFERLLGPCMEIMKRNIATYEEQLVALFGTNMDIVGSSGGSGGSGGLKADIHVIIPYEGLSGFQMGLIEMIFKVVYPVDDHHFKIILHYGTLVIDGVTPNMIDYFGRPYPGIAVFDGKQITVTGTLWNGNKIYDERLINPDGSLLFRVTINGVTGWRLCENILA
B3: pBFB400: Met-(OpLuc 1-84)-GSTG-R2betaB-GSSG-(OpLuc 85-169) (protein)
chain: MFTLADFVGDWQQTAGYNQDQVLEQGGLSSLFQALGVSVTPIQKVVLSGENGLKADIHVIIPYEGLSGFQMGLIEMIFKVVYPVDGSTGMYESFIESLPFLKSLEFSERLKVVDVIGTKVYNDGEQIIAQGDSADSFFIVESGEVKITMKRKGKSEVEENGAVEIARCSRGQYFGELALVTNKPRAASAHAIGTVKCLAMDVQAFERLLGPCMEIMKRNIATYEEQLVALFGTNMDIVGSSGDHHFKIILHYGTLVIDGVTPNMIDYFGRPYPGIAVFDGKQITVTGTLWNGNKIYDERLINPDGSLLFRVTINGVTGWRLCENILA
B4: pBFB232: CPM hRL 92-311/3-91 with GAF A domain from Trypanosoma brucei PDE (SEQ ID NO:185) (protein)
chain: MYRLLDHYKYLTAWFELLNLPKKIIFVGHDWGACLAFHYSYEHQDKIKAIVHAESVVDVIESWDEWPDIEEDIALIKSEEGEKMVLENNFFVETMLPSKIMRKLEPEEFAAYLEPFKEKGEVRRPTLSWPREIPLVKGGKPDVVQIVRNYNAYLRASDDLPKMFIESDPGFFSNAIVEGAKKFPNTEFVKVKGLHFSQEDAPDEMGKYIKSFVERVLKNEQGSSGGSGGSGGGSGGSGGSGSIMNTVKSLTESARCSLFLVRGDVLEAHFEDGNVVTIPRGAGIAGYVAQTGETVNIVDAYADDRFNREVDKATGYRTKTILCMPVMYEGTIVAVAQLINKLDLTTESGLRLPRVFGKRDEELFQTFSMFAGASLRGSGGSGGSGGTSGGSGGSSGASKVYDPEQRKRMITGPQWWARCKQMNVLDSFINYYDSEKHAENAVIFLHGNAASSYLWRHVVPHIEPVARCIIPDLIGMGKSGKSGNGSV
B5: pBFB399: OpLuc 1-50 / R2betaB / OpLuc 51-169, 20 aa linkers (SEQ ID NO: 192) (protein)
chain: MFTLADFVGDWQQTAGYNQDQVLEQGGLSSLFQALGVSVTPIQKVVLSGENGSSGGSGGSGGGSGGSGGSGMYESFIESLPFLKSLEFSERLKVVDVIGTKVYNDGEQIIAQGDSADSFFIVESGEVKITMKRKGKSEVEENGAVEIARCSRGQYFGELALVTNKPRAASAHAIGTVKCLAMDVQAFERLLGPCMEIMKRNIATYEEQLVALFGTNMDIVGSGGSGGSGGTSGGSGGSSGGLKADIHVIIPYEGLSGFQMGLIEMIFKVVYPVDDHHFKIILHYGTLVIDGVTPNMIDYFGRPYPGIAVFDGKQITVTGTLWNGNKIYDERLINPDGSLLFRVTINGVTGWRLCENILA
B6: pBFB402: OpLuc 1-84 / R2betaB / OpLuc 85-169, 20 aa linkers (SEQ ID NO: 195) (protein)
chain: MFTLADFVGDWQQTAGYNQDQVLEQGGLSSLFQALGVSVTPIQKVVLSGENGLKADIHVIIPYEGLSGFQMGLIEMIFKVVYPVDGSSGGSGGSGGGSGGSGGSGMYESFIESLPFLKSLEFSERLKVVDVIGTKVYNDGEQIIAQGDSADSFFIVESGEVKITMKRKGKSEVEENGAVEIARCSRGQYFGELALVTNKPRAASAHAIGTVKCLAMDVQAFERLLGPCMEIMKRNIATYEEQLVALFGTNMDIVGSGGSGGSGGTSGGSGGSSGDHHFKIILHYGTLVIDGVTPNMIDYFGRPYPGIAVFDGKQITVTGTLWNGNKIYDERLINPDGSLLFRVTINGVTGWRLCENILA

What was measured:
[1] = test system: intracellular cAMP concentration, HEK 293 cells; experiment: Intracellular cAMP changes in HEK 293 cells transiently transfected with CPM-FF Luc/RIIβB (pBFB141); type: cell-based
Procedure: Cells were cultured in 60 ml in DMEM/F12 with HEPES buffer (Invitrogen) with 10% FBS at 37° C. with 5% CO2.
The ORF encoding the CPM-FF Luc/RIIβB based cAMP biosensor with X/Y linker lengths of (X=10, Y=0) was transferred to Flexi vector pF4K (Flexi vector system; Promega Corp.). The resultant plasmid construct (pBFB141) utilizes an upstream CMV promoter for expression of the associated cAMP biosensor in mammalian cells.
Cells were transfected with TransIt®-LT1 Reagent (MIRUS) using 0.3 μl TransIt®-LT1 reagent and 0.15 μg DNA per well of a 96 well plate. Cells were allowed to grow overnight and were assayed the next day.
Approximately 1 day after transfection, cells were removed from the incubator and equilibrated to room temperature. A 5 μl aliquot of 100 mM Luciferin EF was added to a total of 90 μl of cell culture plus transfection reagent to give a final concentration of approximately 5 mM luciferin. Cells were then incubated at room temperature for at least 90 minutes. After 90 minutes at room temperature, baseline measurements of luminescence were measured using a 96 well Veritas Luminometer (Turner Biosystems; integration time of 0.5 seconds per well). Cells were then induced with 10 μM isopreterenol (CalBiochem), 50 mM forskolin (Sigma) or not induced (0.1% DMSO, Sigma) and luminescence was measured continuously for about 30 minutes. After 30 minutes, […] (Sigma) was added to cells with isopreterenol and 0.1% DMSO was added to all other samples. Luminescence was then measured continuously for the next 30 minutes. A final addition of 50 μM forskolin was added to the isopreterenol/propranolol sample and 0.1% DMSO was added to all other samples. Luminescence was then measured continuously for the next half hour. Samples were measured in sets of 12 replicates. 10× stocks of isopreterenol, propranolol, forskolin and DMSO were made in 1×PBS (Invitrogen).

[2] = test system: cyclic AMP dependent protein kinase catalytic subunit; conditions: cited from earlier work
[3] = test system: intracellular cAMP concentration, HEK 293 cells; experiment: Intracellular cAMP changes in HEK293 cells with CPM-hRL Luc/RIIβB biosensors (isopreterenol, propranolol, forskolin); type: cell-based
Procedure: Cells were cultured in 2 mL DMEM/F12 with HEPES buffer (Invitrogen) and 10% FBS at 37° C. with 5% CO2 in a 6 well plate. Three of the constructs described in Example XVII were used to detect intracellular changes of cAMP concentrations. The constructs used were: pBFB277, pBFB279 and pBFB287. HEK293 cells stably expressing CPM91-hRL/RIIβB (ORF derived from 201325.44.H6 were also used in these experiments. HEK293 cells were transfected with TransIt®-LT1 Reagent (MIRUS) using 6 μL TransIt®-LT1 reagent and 2 μg DNA (pBFB277, pBFB279 and pBFB287) per well of a 6 well plate. Cells were allowed to grow overnight and were assayed the next day. Approximately 1 day after transfection, cells were trypsinized, resuspended in fresh DMEM/F12 with HEPES buffer (Invitrogen) with 1% FBS and plated in a 96 well plate at approximately 10,000 cells per well. Alternatively, a HEK293 cell line stably expressing CP91-hRL/RIIβB was plated in a 96 well plate at approximately 10,000 cells per well. A 10 μL aliquot of 600 μM EnduRen was added to a total of 100 μL of cell culture to give a final concentration of approximately […]. Cells were then incubated at 37° C. with 5% CO2. After 5 hours, the plate was removed from the incubator and allowed to cool to room temperature for at least 20 minutes. After 20 minutes, baseline measurements of luminescence were measured using a 96 well Veritas Luminometer (Turner Biosystems; integration time of 0.5 seconds per well). Cells were then induced with 10 μM isopreterenol (CalBiochem), 50 μM forskolin (Sigma) or not induced (0.1% DMSO, Sigma) and luminescence was measured continuously for about 30 minutes. After 30 minutes, 10 μM propranolol (Sigma) was added to cells already induced with isopreterenol and 0.1% DMSO was added to all other samples. Luminescence was then measured continuously for the next 30 minutes. A final addition of 50 μM forskolin was added to the isopreterenol/propranolol sample and 0.1% DMSO was added to all other samples. Luminescence was then measured continuously for the next half hour. Samples were measured in sets of 4-6 replicates. 10× stocks of isopreterenol, propranolol, forskolin and DMSO were made in DMEM/F12 with HEPES buffer (Invitrogen) and 1% FBS.

[4] = Nonpermuted Oplophorus luciferase/RIIβB insertion constructs, luminescence with or without exogenous cAMP; type: biochemical; conditions: for luminescence, + exogenous cAMP: addition of exogenous cAMP to 50 μM final concentration; for luminescence, − no exogenous cAMP: no exogenous cAMP was added
Procedure: Protein was expressed from these constructs using the TnT T7 Coupled Reticulocyte Lysate System. Following expression, 9 μL of TNT reaction was mixed with 1 μL 1 mM cAMP stock or H2O, and the reactions were allowed to incubate at room temperature for approximately 15 minutes. Following incubation, 10 μL of 2× buffer (300 mM HEPES, pH=8.0, 200 mM thiourea) was added to each reaction, and luminescence was measured from the resulting 20 μL of solution following addition of 100 μL of Renilla Assay Reagent using a Turner 20/20N luminometer (1 second integration time).

[5] = CPM hRL / GAF A domain biosensor, luminescence with or without exogenous cAMP (reticulocyte lysate); type: biochemical
Procedure: An additional type of cAMP biosensor was constructed using a circularly permuted Renilla luciferase (hRL) and a GAF domain. The plasmid DNA construct encoding the following fusion protein: Met-(hRL 92-311)-[…]-(GAF A domain from Trypanosoma brucei PDE; Genbank AF192755 amino acids 241-375)-[…]-A-(hRL 3-91)-Val (SEQ ID NO:185) [clone pBFB232]. Following expression using the T7 Coupled Reticulocyte Lysate System, luminescence activity was measured in the presence or absence of exogenous cAMP. In the presence of cAMP, the measured activity was 7595 RLU; in the absence of cAMP, the measured activity was 298 RLU (about a 25 fold change). […] This type of reagent may allow the monitoring of changes in cAMP concentration in living cells, and it also may provide distinct advantages over existing FRET-based cAMP biosensors in that assay format. Moreover, since the GAF domain is a highly conserved fold in nature responsible for binding a wide range of molecules, it is likely that additional types of CPM hRL biosensors could be made using this fold.

Molecule	luminescence, + exogenous cAMP [4]	luminescence, − no exogenous cAMP [4]	further results
Wild type luciferase: wild type (firefly) luciferase control			response to known modulators of intracellular cAMP concentration ([1]; control constructs in HEK 293 cells): no specific response
LRRASLG			decrease in activity on phosphorylation by cyclic AMP dependent protein kinase [2]: 30%
RRFS: Photinus pyralis luciferase V217R mutant with site RRFS (SEQ ID NO:117), Sala-Newby et al.			decrease in activity on phosphorylation by cyclic AMP dependent protein kinase [2]: up to 80%
CC(C)NCC(O)c1ccc(O)c(O)c1 (stereo not shown) [isopreterenol]			increase in light output from transfected cells ([1]; HEK 293 cells, pBFB141, 10 μM isopreterenol or 50 mM forskolin (so in the source), treatment alone, room temperature): approximately 2 fold; increase in light output ([3]; HEK293 cells stably expressing CPM91-hRL/RIIβB, isopreterenol and forskolin treatment): about 5 fold; increase in light output from transfected cells ([3]; HEK 293 transiently transfected with CPM-hRL Luc/RIIβB (X=4, Y=20) constructs, 10 μM isopreterenol or 50 μM forskolin alone): approximately 2 fold
B1	6,124	2,304	
B2	4,917	291	
B3	10,369	6,387	
B4			measured activity in the presence of cAMP ([5]; exogenous cAMP): 7595 RLU; measured activity in the absence of cAMP ([5]; no cAMP): 298 RLU; fold change with cAMP ([5]; presence vs absence of cAMP): ~25 fold
B5	38,051	356	
B6	62,264	8,568	
